The target in assay [1] is RPA70N (aa 1-120 of RPA70) used for ITC and NMR (UniProt P27694). The experiment in a line: ITC; 10 μl injections of 336 μM Tag(84-130) into 60 μM RPA70N in the cell; 25 mM Tris-Cl pH 7.5, 100 mM NaCl; single site model; average of three trials. On the technique in general: Isothermal titration calorimetry measures the heat released or taken up as one component is titrated into another.

Assay [2] has as its target T1, Simian virus 40 Large T-antigen (Tag), full length (Simian virus 40 (SV40), UniProt P03070 1-708).
T1 construct: SV40 Large T antigen, full length; The methods tell the removal of GST from full-length Tag for 'ITC and NMR studies'; for the pull-down the legend says only 'purified as described in Materials and Methods'; also called Large Tumor Antigen; full-length Tag; source: Rosetta 2 cells, GST-tagged, purified (glutathione agarose), treated with H3C PreScission protease
The assay is described as follows: pull-down; GST-RPA70N (WT or R41/43E) or GST on glutathione beads, purified full-length Tag as prey; 4°C, 30 mM HEPES KOH pH 7.8, 10 mM KCl, 7 mM MgCl2, 10 μM ZnCl2, 2% non-fat dry milk; washes with 75 mM KCl; blot with pAb101 and anti-GST; also without antibody or after pre-incubation of Tag with control non-immune IgG. To be noted: both partners purified.

Take “Tag(84-130), GST removed (domain or fragment)”: the Kd (as a rule, the free concentration of one partner at which half of the binding sites on the other are occupied at equilibrium, for simple one-to-one binding) in assay [1] stood at 1280 nM.

B1: GST-RPA70N (N-terminal domain of the 70 kDa subunit of Replication Protein A, residues 1-120) (domain or fragment, UniProt P27694 1-120, looked up)
chain: MVGQLSEGAIAAIMQKGDTNIKPILQVINIRPITTGNSPPRYRLLMSDGLNTLSSFMLATQLNPLVEEEQLSSNCVCQIHRFIVNTLKDGRRVVILMELEVLKSAEAVGVKIGNPVPYNE
notes: also called GST-RPA70N WT; source: Rosetta 2 cells, purified (glutathione agarose)
For B1, in assay [2], the binding result is recorded as “binds”.

Source of the values: PMC4337903, “Simian Virus Large T Antigen Interacts with the N-Terminal Domain of the 70 kD Subunit of Replication Protein A in the Same Mode as Multiple DNA Damage Response Factors” (PLoS ONE, 2015).
